Data as given in patent US6322962A, “Sterol-regulated Site-1 protease and assays of modulators thereof” (Board of Regents, The University of Texas System, priority 1999, dated 2001).

Tested on: SREBP-2
Test: Immunoblot of cleavage of HSV-tagged SREBP-2 in transfected SRD-12B cells
Format: cell-based, hamster
Conditions: for cleavage of SREBP-2 by S1P or S1P mutant: SRD-12B cells, HSV-tagged SREBP-2
Method: On day 0, SRD-12B cells were set up at a density of 6×10^5 cells/60-mm dish in medium B. On day 1, cells were transfected with 4 μg of the indicated plasmid DNA plus 12 μl of LipofectAMINE™ reagent (Life Technologies) according to the manufacturer's instructions with modifications as follows. LipofectAMINE™/DNA complexes were formed in 1 ml of serum-free medium for 15 min at room temperature, and 0.5 ml were added to 1 ml of serum-free medium per dish. […] After incubation at 37 ° C. for 20 h, the cells received N-acetyl-leucinal-leucinal norleucinal (ALLN) at a final concentration of 25 μg/ml. […] After boiling for 5 min, the proteins were subjected to SDS-PAGE and transferred to Hybond-C Extra nitrocellulose filters (Amersham). The filters were incubated with the antibodies described in the figure legends. […] Gels were calibrated with prestained molecular weight markers (New England Biolabs, Beverly, Mass.). Filters were exposed to X-Omat Blue XB-1 film (Kodak, Rochester, N.Y.) with intensifying screens at room temperature for the indicated time.
Cell membranes and nuclear extracts were subjected to electrophoresis and blotted with an antibody against the HSV epitope-tag.
In a more direct test for S1P catalytic activity, the mutant plasmids were transfected into the SRD-12B cells together with pTK-HSV-BP2. Membranes and nuclear extracts were subjected to SDS-PAGE and blotted with an antibody against the HSV-tagged SREBP-2 (FIG. 9B).
The inventors cotransfected cDNAs encoding wild-type S1P or one of the mutants. Cell membrane pellets and nuclear extracts were subjected to SDS-PAGE. and the NH2 -terminus of SREBP-2 was visualized by immunoblotting with anti-HSV (FIG. 16A).

| Molecule | cleavage of SREBP-2 by S1P or S1P mutant | expression level required for SREBP-2 cleavage, compared to wild-type S1P (pTK plasmids, FIG. 16) |
| --- | --- | --- |
| Site B+C mutant: S1P containing both the Site-B and Site-C mutations (protein) DGGRSEQKLISEEDLNGEQKLISEEDLNGEQKLISEEDLNSSGRLGKKAFEKASCPSCSHLTLKVEFSSTVVEYEYIVAFNGYFTAKARNSFISSALKSSEVDNWRIIPRNNPSSDYPSDFEVIQIKEKQKAGLLTLEDHPNIKRVTPQRKVFAAAAFAESDPIVPCNETRWSQKWQSSRPLVAASLSLGSGFWHATGRHSSAAAAAAIPRQVAQTLQADVLWQMGYTGANVRVAVFDTGLSEKHPHFKNVKERTNWTNERTLDDGLGHGTFVAGVIASMRECQGFAPDAELHIFRVFTNNQVSYTSWFLDAFNYAILKKIDVLNLSIGGPDFMDHPFVDKVWELTANNVIMVSAIGNDGPLYGTLNNPADQMDVIGVGGIDFEDNIARFSSRGMTTWELPGGYGRVKPDIVTYGAGVRGSGVKGGCRALSGTSVASPVVAGAVTLLVSTVQKRELVNPASVKQALIASARRLPGVNMFEQGHGKLDLLRAYQILSSYKPQASLSPSYIDLTECPYMWPYCSQPIYYGGMPTIVNVTILNGMGVTGRIVDKPEWRPYLPQNGDNIEVAFSYSSVLWPWSGYLAISISVTKKAASWEGIAQGHIMITVASPAETEAKNGAEHTSTVKLPIKVKIIPTPPRSKRVLWDQYHNLRYPPGYFPRDNLRMKNDPLDWNGDHVHTNFRDMYQHLRSMGYFVEVLGAPFTCFDATQYGTLLMVDSEEEYFPEEIAKLRRDVDNGLSLVIFSDWYNTSVMRKVKFYDENTRQWWMPDTGGANIPALNELLSVWNMGFSDGLYEGEFALANHDMYYASGCSIAKFPEDGVVITQTFKDQGLEVLKQETAVVENVPILGLYQIPAEGGGRIVLYGDSNCLDDSHRQKDCFWLLDALLQYTSYGVNPPSLSHSGNRQRPPSGAGLAPPERMEGNHLHRYSKVLEAHLGDPKPRPLPACPHLSWAKPQPLNETAPSNLWKHQKLLSIDLDKVVLPNFRSNRPQVRPLSPGESGAWDIPGGIMPGRYNQEVGQTIPVFAFLGAMVALAFFVVQISKAKSRPKRRRPRAKRPQLTQQTHPPRTPSV | no detectable cleaved nuclear form | – |
| Site-B mutant: S1P with amino acids 134-137 mutated from RSLK to AAAA (protein) MKLINIWLLLLVVLLCGKKHLGDRLGKKAFEKASCPSCSHLTLKVEFSSTVVEYEYIVAFNGYFTAKARNSFISSALKSSEVDNWRIIPRNNPSSDYPSDFEVIQIKEKQKAGLLTLEDHPNIKRVTPQRKVFAAAAFAESDPIVPCNETRWSQKWQSSRPLRRASLSLGSGFWHATGRHSSRRLLRAIPRQVAQTLQADVLWQMGYTGANVRVAVFDTGLSEKHPHFKNVKERTNWTNERTLDDGLGHGTFVAGVIASMRECQGFAPDAELHIFRVFTNNQVSYTSWFLDAFNYAILKKIDVLNLSIGGPDFMDHPFVDKVWELTANNVIMVSAIGNDGPLYGTLNNPADQMDVIGVGGIDFEDNIARFSSRGMTTWELPGGYGRVKPDIVTYGAGVRGSGVKGGCRALSGTSVASPVVAGAVTLLVSTVQKRELVNPASVKQALIASARRLPGVNMFEQGHGKLDLLRAYQILSSYKPQASLSPSYIDLTECPYMWPYCSQPIYYGGMPTIVNVTILNGMGVTGRIVDKPEWRPYLPQNGDNIEVAFSYSSVLWPWSGYLAISISVTKKAASWEGIAQGHIMITVASPAETEAKNGAEHTSTVKLPIKVKIIPTPPRSKRVLWDQYHNLRYPPGYFPRDNLRMKNDPLDWNGDHVHTNFRDMYQHLRSMGYFVEVLGAPFTCFDATQYGTLLMVDSEEEYFPEEIAKLRRDVDNGLSLVIFSDWYNTSVMRKVKFYDENTRQWWMPDTGGANIPALNELLSVWNMGFSDGLYEGEFALANHDMYYASGCSIAKFPEDGVVITQTFKDQGLEVLKQETAVVENVPILGLYQIPAEGGGRIVLYGDSNCLDDSHRQKDCFWLLDALLQYTSYGVNPPSLSHSGNRQRPPSGAGLAPPERMEGNHLHRYSKVLEAHLGDPKPRPLPACPHLSWAKPQPLNETAPSNLWKHQKLLSIDLDKVVLPNFRSNRPQVRPLSPGESGAWDIPGGIMPGRYNQEVGQTIPVFAFLGAMVALAFFVVQISKAKSRPKRRRPRAKRPQLTQQTHPPRTPSV | weak activity | > 10 -fold |
